Measurements as given in the supplement of paper PMC10724198.
± gives the standard deviation of the averaged measurements.

Test system: Saccharomyces cerevisiae
Assay: protein stability index of tFT-peptide fusion (C-terminal peptide) (PSI (0-1 scale)); higher = more stable (slower turnover)
Conditions: temperature: 30 C
Experimental: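 MPS profiling in S. cerevisiae of the yeast C-terminome library: the last 12 aa of each annotated ORF are fused to the C-terminus of a sfGFP-mCherry timer, after a GGGS linker. Cells are FACS-sorted into 8 mCherry/sfGFP bins and deep-sequenced. PSI runs from 0 (unstable) to 1 (stable); wild type and das1Δ backgrounds, two technical replicates each.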

[1] = genetic background: das1 deletion

Row | Sequence | protein stability index [1] | protein stability index (genetic background: wild type)
1 | EGIFPANYVRVS [YSC84 C-terminal 12 aa] | 0.663 ± 0.01 | 0.673 ± 0.0097
2 | VFPGNYVQLNKN [RVS167 C-terminal 12 aa] | 0.6933 ± 0.0022 | 0.679 ± 0.027
3 | QNYPIVSFSRVI [OSW1 C-terminal 12 aa] | 0.7236 ± 0.0058 | 0.685 ± 0.012
4 | WLSKSGSSAALP [TOS1 C-terminal 12 aa] | 0.717 ± 0.014 | 0.685 ± 0.022
5 | MEDEDMVDVIID [ESC2 C-terminal 12 aa] | 0.689 ± 0.02 | 0.7232 ± 0.0017
6 | AYQIRQEVLQSL [SGA1 C-terminal 12 aa] | 0.65923 ± 0.00056 | 0.672 ± 0.012
7 | IDLLAENTKTPI [COA1 C-terminal 12 aa] | 0.6964 ± 0.0031 | 0.697 ± 0.018
8 | LMKLFKSSKFSK [GEM1 C-terminal 12 aa] | 0.724 ± 0.024 | 0.694 ± 0.077
9 | IHYKMNENSTNQ [SYO1 C-terminal 12 aa] | 0.689 ± 0.0075 | 0.68 ± 0.04
10 | EKQQRRNMKNAL [RRS1 C-terminal 12 aa] | 0.704 ± 0.034 | 0.703 ± 0.01
11 | EPNGYIKNLKWT [RXT3 C-terminal 12 aa] | 0.713 ± 0.023 | 0.633 ± 0.034
12 | QVTAVVVSYQGV [ATG11 C-terminal 12 aa] | 0.5882 ± 0.0024 | 0.5999 ± 0.0039
13 | DFSASSSVEEVK [MFT1 C-terminal 12 aa] | 0.7088 ± 0.004 | 0.662 ± 0.011
14 | QPINLDSISDDL [DRE2 C-terminal 12 aa] | 0.7068 ± 0.0039 | 0.766 ± 0.12
15 | LIPELYSVLDGF [YDL007C-A C-terminal 12 aa] | 0.7449 ± 0.0037 | 0.74 ± 0.051
16 | KHKQYFWKRPTK [PLM2 C-terminal 12 aa] | 0.714 ± 0.015 | 0.692 ± 0.019
17 | GAGALAAAAMLL [CWP2 C-terminal 12 aa] | 0.711 ± 0.032 | 0.665 ± 0.027
18 | LSIAAGVGFALV [GAS1 C-terminal 12 aa] | 0.657 ± 0.007 | 0.653 ± 0.0083
19 | KHKNILSFNDNT [YER188C-A C-terminal 12 aa] | 0.731 ± 0.015 | 0.747 ± 0.068
20 | TCISVFLEVHQV [YDL206W C-terminal 12 aa] | 0.479 ± 0.017 | 0.4633 ± 0.0046
21 | EFEILDAKKEKD [PIM1 C-terminal 12 aa] | 0.699 ± 0.0047 | 0.681 ± 0.056

Row | Sequence | protein stability index [1] | protein stability index (genetic background: wild type)
22 | YEPTDWECTDAP [YJR096W C-terminal 12 aa] | 0.7254 ± 0.0027 | 0.708 ± 0.06
23 | LKSGEKESNASK [SDC1 C-terminal 12 aa] | 0.678 ± 0.0026 | 0.652 ± 0.013
24 | SKKVICNTFGYN [DDI2 C-terminal 12 aa] | 0.689 ± 0.027 | 0.733 ± 0.1
25 | LLHTVMNENKLP [LST7 C-terminal 12 aa] | 0.716 ± 0.03 | 0.687 ± 0.054
26 | RPWYVRQFHFWC [TAT2 C-terminal 12 aa] | 0.713 ± 0.0097 | 0.538 ± 0.011
27 | RDGQKTSLIRLI [YBR259W C-terminal 12 aa] | 0.711 ± 0.035 | 0.57 ± 0.11
28 | SLIKQVGVKLDR [JHD2 C-terminal 12 aa] | 0.671 ± 0.025 | 0.67 ± 0.013
29 | KILTQHLQDLQS [RKM2 C-terminal 12 aa] | 0.6934 ± 0.0063 | 0.714 ± 0.077
30 | FKIFAKLFCTRK [HLR1 C-terminal 12 aa] | 0.71093 ± 0.00038 | 0.6936 ± 0.0041
31 | NFEKPCLIQDGK [FMP48 C-terminal 12 aa] | 0.717 ± 0.051 | 0.706 ± 0.033
32 | PSMTTTNFSAFM [ECM22 C-terminal 12 aa] | 0.698 ± 0.008 | 0.697 ± 0.058
33 | KPMAYSNGGFGL [PPT1 C-terminal 12 aa] | 0.674 ± 0.015 | 0.668 ± 0.015
34 | DYKKFIEDVLRQ [MLC1 C-terminal 12 aa] | 0.696 ± 0.033 | 0.702 ± 0.04
35 | RHSMSEEELEMY [KTR4 C-terminal 12 aa] | 0.689 ± 0.034 | 0.685 ± 0.044
36 | HDHHNDVPEAPV [RAD1 C-terminal 12 aa] | 0.6941 ± 0.0012 | 0.692 ± 0.022
37 | VYEVVCDSVRNW [MRX21 C-terminal 12 aa] | 0.692 ± 0.023 | 0.717 ± 0.0011
38 | VKEIPEYSHLID [GCN5 C-terminal 12 aa] | 0.718 ± 0.0055 | 0.697 ± 0.0012
39 | VLMLETIAYLFS [NFG1 C-terminal 12 aa] | 0.487 ± 0.022 | 0.5059 ± 0.0015
40 | EPMESLRSTTKY [PTR2 C-terminal 12 aa] | 0.734 ± 0.022 | 0.697 ± 0.01
41 | MSLRKYVSVCSM [YHL006W-A C-terminal 12 aa] | 0.5 ± 0.012 | 0.513 ± 0.0063
42 | LLDAIELYQRHK [HEM4 C-terminal 12 aa] | 0.698 ± 0.017 | 0.6704 ± 0.0026

Row | Sequence | protein stability index [1] | protein stability index (genetic background: wild type)
43 | QKLHAIDGEDEL [GPI17 C-terminal 12 aa] | 0.688 ± 0.017 | 0.649 ± 0.028
44 | PLKFPLPLKPPL [YHL034W-A C-terminal 12 aa] | 0.715 ± 0.018 | 0.699 ± 0.022
45 | RRMKLKERKRTT [YBL029W C-terminal 12 aa] | 0.713 ± 0.022 | 0.655 ± 0.05
46 | NILPMTYLLKKK [DPI34 C-terminal 12 aa] | 0.697 ± 0.049 | 0.6405 ± 0.0054
47 | DISDSEGGLFEC [PCI8 C-terminal 12 aa] | 0.69 ± 0.085 | 0.694 ± 0.085
48 | KSVRIAIDKPIR [ALD5 C-terminal 12 aa] | 0.696 ± 0.026 | 0.666 ± 0.018
49 | DDDDDDDGQITA [YHR131C C-terminal 12 aa] | 0.677 ± 0.027 | 0.6663 ± 0.004
50 | TGLLRGSQKTQD [RPL2A C-terminal 12 aa] | 0.7017 ± 0.0061 | 0.672 ± 0.0086
51 | ADWKAQRGEDGK [PNG1 C-terminal 12 aa] | 0.67376 ± 7.2e-05 | 0.703 ± 0.014
52 | KDSKEYFKNANN [TSA2 C-terminal 12 aa] | 0.714 ± 0.022 | 0.716 ± 0.02
53 | ISLWYKHNRVKG [YPR077C C-terminal 12 aa] | 0.677 ± 0.017 | 0.5619 ± 0.0045
54 | QFKQILENYRPT [VPS38 C-terminal 12 aa] | 0.664 ± 0.0088 | 0.7348 ± 0.0013
55 | RTLTTGNYHGLA [SYP1 C-terminal 12 aa] | 0.6833 ± 0.0056 | 0.6781 ± 0.0046
56 | NDLITYLKKACE [CYC1 C-terminal 12 aa] | 0.68 ± 0.01 | 0.683 ± 0.011
57 | SPAHSFEKIQKI [ERF2 C-terminal 12 aa] | 0.692 ± 0.015 | 0.688 ± 0.029
58 | EFKCMSVITAQQ [SEH1 C-terminal 12 aa] | 0.67622 ± 0.00052 | 0.687 ± 0.025
59 | FCHGAEDAWNIL [EMG1 C-terminal 12 aa] | 0.7275 ± 0.0017 | 0.712 ± 0.012
60 | KKKLVKKTKSKK [RIO1 C-terminal 12 aa] | 0.739 ± 0.01 | 0.705 ± 0.081
61 | EATYKVLQQLHK [ADE8 C-terminal 12 aa] | 0.71 ± 0.012 | 0.7224 ± 0.00099
62 | LSSVKVRQLRNM [RBH2 C-terminal 12 aa] | 0.681 ± 0.021 | 0.205 ± 0.0043
63 | LERLRYLFPNYW [MEU1 C-terminal 12 aa] | 0.738 ± 0.016 | 0.717 ± 0.051

Row | Sequence | protein stability index [1] | protein stability index (genetic background: wild type)
64 | TTNANVNNSSLS [FKH1 C-terminal 12 aa] | 0.715 ± 0.021 | 0.6623 ± 0.0022
65 | SMTTTNFSDFSL [UPC2 C-terminal 12 aa] | 0.6932 ± 0.0047 | 0.688 ± 0.036
66 | RSHKCYPHDVRF [NAT3 C-terminal 12 aa] | 0.7614 ± 0.0011 | 0.662 ± 0.024
67 | SLCKNTIISSSV [YAL063C-A C-terminal 12 aa] | 0.693 ± 0.023 | 0.703 ± 0.035
68 | KNIPEKFKNGIF [SSP120 C-terminal 12 aa] | 0.729 ± 0.036 | 0.647 ± 0.0098
69 | DKVPVHYPPVVE [SYM1 C-terminal 12 aa] | 0.686 ± 0.028 | 0.709 ± 0.045
70 | EHKGSIEAGFTS [CSS2 C-terminal 12 aa] | 0.698 ± 0.023 | 0.715 ± 0.025
71 | RYRLSQRQESKK [MRX4 C-terminal 12 aa] | 0.698 ± 0.011 | 0.682 ± 0.021
72 | FAAVSFVLGTGI [NCW1 C-terminal 12 aa] | 0.714 ± 0.008 | 0.709 ± 0.017
73 | ARGYVNVMDNIQ [SEC16 C-terminal 12 aa] | 0.6727 ± 0.0025 | 0.678 ± 0.042
74 | SPYDWFRNTETP [DER1 C-terminal 12 aa] | 0.726 ± 0.035 | 0.737 ± 0.0089
75 | DRVGEVFAKLFG [NNR2 C-terminal 12 aa] | 0.7119 ± 0.0012 | 0.728 ± 0.011
76 | DSFFFDVLAQLP [YLR434C C-terminal 12 aa] | 0.7357 ± 0.0072 | 0.686 ± 0.012
77 | ELLCKGICKAAE [HEL1 C-terminal 12 aa] | 0.6857 ± 0.0035 | 0.674 ± 0.017
78 | LEEETLPPSQKK [PYC2 C-terminal 12 aa] | 0.694 ± 0.013 | 0.647 ± 0.02
79 | FYHVFDEPRYYL [CWH43 C-terminal 12 aa] | 0.7524 ± 0.0054 | 0.7087 ± 0.0018
80 | SFHKEFFDQYRD [ALT1 C-terminal 12 aa] | 0.7326 ± 0.0045 | 0.774 ± 0.048
81 | GFQATVGKRRRM [SUI3 C-terminal 12 aa] | 0.699 ± 0.019 | 0.703 ± 0.0081
82 | VDQLFEKASVLY [RPN6 C-terminal 12 aa] | 0.68 ± 0.017 | 0.721 ± 0.03
